Laboratory results as given in US20230406921A1 (MABWELL SHANGHAI BIOSCIENCE, published 2023).
Numbering of substitutions follows the chain as printed. Values belong to the binder of their own block, whether it stands above or below them.

Tests used:
[1] = target: T1, recombinant antigen of the extracellular region of CD47 (Sino Biological, Cat: 12283-H08H) (human, UniProt Q08722 19-139); assay: Fortebio BLI, recombinant CD47
T1 construct: extracellular domain; also called recombinant CD47 extracellular region; CD47 recombinant protein

[2] = target: T2, CD47 on the surface of human red blood cells (human, UniProt Q08722 19-323); assay: FACS, RBC, 200 nM
T2 construct: whole, on cells; Same protein as m3, on red blood cells; also called hRBC; RBC
Procedure: (§1) The difference between the binding of the mutant to CD47 on the surface of tumor cells and CD47 on the surface of red blood cells was evaluated.

[3] = target: T3, CD47 on the surface of tumor cells (human, UniProt Q08722 19-323); assay: FACS, tumor cells, 2 nM
T3 construct: whole, on cells; Same protein as m4; also called CD47 antigen on the surface of U937 and CCRF cells; SKOV-3
Procedure: as §1

[4] = target: T3, CD47 on the surface of tumor cells; assay: FACS, tumor cells, 1 nM
Procedure: as §1

[5] = target: T1, recombinant antigen of the …; assay: Fortebio BLI, antibody on AHC sensor, CD47 extracellular region 100 nM;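 further: antibody held on the sensor through anti-human Fc capture, CD47 antigen in solution, association and dissociation phases each lasting 300 s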
Procedure: The affinity between the obtained mutant antibody and the CD47 recombinant protein was determined by Fortebio. The antibody was immobilized on the surface of a sensor with the anti-human Fc capture antibody (AHC Sensor), and reacted with the recombinant antigen of the extracellular region of CD47 (with a working concentration of 100 nM) in the liquid phase. The duration for binding and dissociation was both 300 seconds. The kinetic parameters were determined.

[6] = target: T1, recombinant antigen of the …; assay: Fortebio BLI, recombinant CD47 extracellular region

- Kd [1]: 16.6 nM
- kon [1]: 201000 M⁻¹ s⁻¹
- FACS (MFI) [2]: 349 MFI
- FACS (MFI) [3]: 17800 MFI
B1: hz140-Hm13/hz182-Lm7 (antibody, V domains shown)
VH: EVQLVQSGAEVKKPGASVKVSCKASGYKFTNYVMSWVRQAPGQRLEWMGYINPYNDAIKYNEKFTGRVTITRDTSASTAYMELSSLRSEDTAVYYCAREGDFYANYGRLGFAYWGQGTLVTVSS
VL: DIQMTQSPSSLSASVGDRVTITCRASQDISNYLNWYQQKPGKAPKLLLYYTSRLHSGVPSRFSGSGSGTDYTLTISSLQPEDFATYFCQQGAGFPYTFGGGTKVEIKR

- FACS (MFI) [4]: 26400 MFI
B2: h140Hm13/h140Lm8 (antibody, V domains shown)
VH: B1 VH
VL: DIQMTQSPSSLSASVGDRVTITCRASQDITNYLNWYQQKPGKAPKLLIYYTSRLHSGVPSRFSGSGSGTDYTFTISSLQPEDIATYFCQQGDTRPYTFGGGTKVEIK
notes: also called h140Lmut8; mut8

- Kd [5]: 6.53 nM
- koff [5]: 0.0017 s⁻¹
- kon [5]: 260000 M⁻¹ s⁻¹
B3: hz140-Hm11/hz182-L (antibody, V domains shown)
VH: B1 VH with E1Q
VL: B2 VL with T30S, I48L, F73L, I83F, D92A, T93G

- Kd [5]: 6.82 nM
- koff [5]: 0.00103 s⁻¹
- kon [5]: 151000 M⁻¹ s⁻¹
B4: hz140-Hm5/hz182-L (antibody, V domains shown)
VH: B1 VH with E1Q, S35H, Y50W, A57G
VL: B2 VL with T30S, I48L, F73L, I83F, D92A, T93G

- FACS (MFI) [4]: 40900 MFI
B5: h140Hm13/h140Lm10 (antibody, V domains shown)
VH: B1 VH
VL: B2 VL with D92A, T93G
notes: also called h140Lmut10; mut10

- Kd [1]: 7.06 nM
- kon [1]: 134000 M⁻¹ s⁻¹
- FACS (MFI) [2]: 2320 MFI
- FACS (MFI) [3]: 15500 MFI
B6: hz140-Hm13/hz182-Lm1 (antibody, V domains shown)
VH: B1 VH
VL: B1 VL with L48I, F94R
notes: also called hz182-Lml

- FACS (MFI) [4]: 9920 MFI
B7: h140Hm13/h140Lm18 (antibody, V domains shown)
VH: B1 VH
VL: B2 VL with H55Q, R94N

- Kd [6]: 6.17 nM
- koff [6]: 0.00216 s⁻¹
- kon [6]: 350000 M⁻¹ s⁻¹
B8: 140Hm4/hz140L (Table 2) (antibody, V domains shown)
VH: B1 VH with E1Q, S35H, Y50W, A57G
VL: B2 VL with R94F, Y96R
notes: also called hz140-Hm/hz140L

- FACS (MFI) [4]: 12200 MFI
B9: h140Hm13/h140Lm16 (antibody, V domains shown)
VH: B1 VH
VL: B2 VL with H55Q, R94S

- Kd [5]: < 0.001 nM
- koff [5]: < 1e-07 s⁻¹
- kon [5]: 223000 M⁻¹ s⁻¹
B10: hz140-Hm9/hz182-L (antibody, V domains shown)
VH: B1 VH with E1Q, S35H
VL: B2 VL with T30S, I48L, F73L, I83F, D92A, T93G

- Kd [6]: 3.92 nM
- koff [6]: 0.000847 s⁻¹
- kon [6]: 216000 M⁻¹ s⁻¹
B11: 140Hm9/hz140L (Table 2) (antibody, V domains shown)
VH: B1 VH with E1Q, S35H, D56E, A57G
VL: B2 VL with R94F, Y96R
notes: also called hz140-Hm/hz140L

- Kd [6]: 5.12 nM
- koff [6]: 0.00103 s⁻¹
- kon [6]: 201000 M⁻¹ s⁻¹
B12: 140Hm3/hz140L (Table 2) (antibody, V domains shown)
VH: B1 VH with E1Q, A57G
VL: B2 VL with R94F, Y96R
notes: also called hz140-Hm/hz140L

- Kd [5]: < 0.001 nM
- koff [5]: < 1e-07 s⁻¹
- kon [5]: 206000 M⁻¹ s⁻¹
B13: hz140-Hm10/hz182-L (antibody, V domains shown)
VH: B1 VH with E1Q, S35H, D56E, A57G
VL: B2 VL with T30S, I48L, F73L, I83F, D92A, T93G

- FACS (MFI) [4]: 19400 MFI
B14: h140Hm13/h140Lm11 (antibody, V domains shown)
VH: B1 VH
VL: B2 VL with H55S

- Kd [5]: 8.55 nM
- koff [5]: 0.00316 s⁻¹
- kon [5]: 370000 M⁻¹ s⁻¹
B15: hz140-Hm6/hz182-L (antibody, V domains shown)
VH: B1 VH with E1Q, S35H, Y54G, A57G
VL: B2 VL with T30S, I48L, F73L, I83F, D92A, T93G

- Kd [6]: 2.67 nM
- koff [6]: 0.00071 s⁻¹
- kon [6]: 266000 M⁻¹ s⁻¹
B16: 140Hm2/hz140L (Table 2) (antibody, V domains shown)
VH: B1 VH with E1Q, V33A, S35H, A57G
VL: B2 VL with R94F, Y96R
notes: also called hz140-Hm/hz140L

- Kd [6]: 22.6 nM
- koff [6]: 0.00707 s⁻¹
- kon [6]: 313000 M⁻¹ s⁻¹
B17: 140Hm6/hz140L (Table 2) (antibody, V domains shown)
VH: B1 VH with E1Q, S35H, A57G, T65Q
VL: B2 VL with R94F, Y96R
notes: also called hz140-Hm/hz140L

- FACS (MFI) [4]: 7520 MFI
B18: h140Hm13/h140Lm14 (antibody, V domains shown)
VH: B1 VH
VL: B2 VL with H55Q, R94Y

- Kd [5]: 5.97 nM
- koff [5]: 0.00171 s⁻¹
- kon [5]: 286000 M⁻¹ s⁻¹
B19: hz140-Hm4/hz182-L (antibody, V domains shown)
VH: B1 VH with E1Q, A57G
VL: B2 VL with T30S, I48L, F73L, I83F, D92A, T93G

- Kd [6]: 3.87 nM
- koff [6]: 0.00094 s⁻¹
- kon [6]: 243000 M⁻¹ s⁻¹
B20: 140Hm8/hz140L (Table 2) (antibody, V domains shown)
VH: B1 VH with E1Q, S35H
VL: B2 VL with R94F, Y96R
notes: also called hz140-Hm/hz140L

- Kd [5]: 61.8 nM
- koff [5]: 0.00767 s⁻¹
- kon [5]: 124000 M⁻¹ s⁻¹
B21: hz140-Hm7/hz182-L (antibody, V domains shown)
VH: B1 VH with E1Q, S35H, A57G, T65Q
VL: B2 VL with T30S, I48L, F73L, I83F, D92A, T93G

- FACS (MFI) [4]: 26400 MFI
B22: h140Hm13/h140Lm12 (antibody, V domains shown)
VH: B1 VH
VL: B2 VL with H55Q

- FACS (MFI) [4]: 15700 MFI
B23: h140Hm13/h140Lm15 (antibody, V domains shown)
VH: B1 VH
VL: B2 VL with H55Q, R94K

- FACS (MFI) [4]: 11200 MFI
B24: h140Hm13/h140Lm17 (antibody, V domains shown)
VH: B1 VH
VL: B2 VL with H55Q, R94E

- Kd [5]: 42.5 nM
- koff [5]: 0.00907 s⁻¹
- kon [5]: 213000 M⁻¹ s⁻¹
B25: hz140-Hm8/hz182-L (antibody, V domains shown)
VH: B1 VH with E1Q, S35H, A57G, A112D
VL: B2 VL with T30S, I48L, F73L, I83F, D92A, T93G

- FACS (MFI) [4]: 10300 MFI
B26: h140Hm13/h140Lm13 (antibody, V domains shown)
VH: B1 VH
VL: B2 VL with R94F

- Kd [1]: 16.7 nM
- kon [1]: 145000 M⁻¹ s⁻¹
- FACS (MFI) [2]: 874 MFI
- FACS (MFI) [3]: 30000 MFI
B27: hz140-Hm13/hz182-Lm3 (antibody, V domains shown)
VH: B1 VH
VL: B1 VL with F83I, F94R

- Kd [5]: 14.7 nM
- koff [5]: 0.00328 s⁻¹
- kon [5]: 224000 M⁻¹ s⁻¹
B28: hz140-Hm12/hz182-L (antibody, V domains shown)
VH: B1 VH with E1Q, K28T
VL: B2 VL with T30S, I48L, F73L, I83F, D92A, T93G

- Kd [6]: 20.8 nM
- koff [6]: 0.00467 s⁻¹
- kon [6]: 224000 M⁻¹ s⁻¹
B29: 140Hm5/hz140L (Table 2) (antibody, V domains shown)
VH: B1 VH with E1Q, S35H, Y54G, A57G
VL: B2 VL with R94F, Y96R
notes: also called hz140-Hm/hz140L

- Kd [6]: 7.83 nM
- koff [6]: 0.00202 s⁻¹
- kon [6]: 258000 M⁻¹ s⁻¹
B30: 140Hm10/hz140L (Table 2) (antibody, V domains shown)
VH: B1 VH with E1Q
VL: B2 VL with R94F, Y96R
notes: also called hz140-Hm/hz140L

- Kd [5]: 10.3 nM
- koff [5]: 0.00308 s⁻¹
- kon [5]: 299000 M⁻¹ s⁻¹
B31: hz140-Hm3/hz182-L (antibody, V domains shown)
VH: B1 VH with E1Q, V33A, S35H, A57G
VL: B2 VL with T30S, I48L, F73L, I83F, D92A, T93G

- Kd [5]: 1.67 nM
- koff [5]: 0.000542 s⁻¹
- kon [5]: 325000 M⁻¹ s⁻¹
B32: hz140-Hm1/hz182-L (antibody, V domains shown)
VH: B1 VH with E1Q, K28T, S35H, A57G
VL: B2 VL with T30S, I48L, F73L, I83F, D92A, T93G

- Kd [6]: 61.4 nM
- koff [6]: 0.0131 s⁻¹
- kon [6]: 213000 M⁻¹ s⁻¹
B33: 140Hm7/hz140L (Table 2) (antibody, V domains shown)
VH: B1 VH with E1Q, S35H, A57G, A112D
VL: B2 VL with R94F, Y96R
notes: also called hz140-Hm/hz140L

- Kd [5]: 1.71 nM
- koff [5]: 0.000541 s⁻¹
- kon [5]: 317000 M⁻¹ s⁻¹
B34: hz140-Hm2/hz182-L (antibody, V domains shown)
VH: B1 VH with E1Q, N31S, S35H, A57G
VL: B2 VL with T30S, I48L, F73L, I83F, D92A, T93G

- Kd [1]: 989 nM
- kon [1]: 87900 M⁻¹ s⁻¹
- FACS (MFI) [2]: 1840 MFI
- FACS (MFI) [3]: 28500 MFI
B35: hz140-Hm13/hz182-Lm4 (antibody, V domains shown)
VH: B1 VH
VL: B1 VL with S30T, F94R

- Kd [1]: 1410 nM
- kon [1]: 94700 M⁻¹ s⁻¹
- FACS (MFI) [2]: 1670 MFI
- FACS (MFI) [3]: 30400 MFI
B36: hz140-Hm13/hz182-Lm2 (antibody, V domains shown)
VH: B1 VH
VL: B1 VL with L73F, F94R
